Assay results reported in article PMC6144824.

Molecular target: mitoribosome large subunit (mtLSU, 39S) (human (endogenous in HEK293T and 143B))
Experiment: co-sedimentation

“MTG1 (human mitochondrial ribosome assembly GTPase), endogenous (natural protein)” showed a percent of total MTG1 co-sedimenting with mtLSU markers of 10%.
